This data set deals with the molecule itself. Description: crystal structure; contact between molecules of the crystal lattice: the cleaved zymogen activation motif of one protease molecule lies in the substrate binding cleft of a neighbouring one; crystals grown at 18 °C.

B1: dasTMPRSS11D (active, autocleaved TMPRSS11D with DDDDK zymogen activation motif) (enzyme)
chain 1: ANWLINECGAGPDLITDDDDK
chain 2: not shown
notes: also called active dasTMPRSS11D; Human Airway Trypsin-like protease
With B1, the binding result is “binds”.
